The DeepSol protein solubility set

Assay: soluble on expression in E. coli; label from the status in PepcDB or PDB records

Row | Sequence | soluble on expression in E. coli
1 | GSHMRLGAQSIQPTANLDRTDDLVYLNVMELVRAVLELKNELAQLPPEGYVVVVKNVGLTLRKLIGSVDDLLPSLPSSSRTEIEGTQKLLNKDLAELINKMRLAQQNAVTSLSEECKRQMLTASHTLAVDAKNLLDAVDQAKVLANLAHPPAE | soluble
2 | GSHMSAEASARPLRVGSRVEVIGKGHRGTVAYVGATLFATGKWVGVILDEAKGKNDGTVQGRKYFTCDEGHGIFVRQSQIQVFEDGADTTSPETPDS | soluble
3 | GSHMSKKILIVESDTALSATLRSALEGRGFTVDETTDGKGSVEQIRRDRPDLVVLAVDLSAGQNGYLICGKLKKDDDLKNVPIVIIGNPDGFAQHRKLKAHADEAVAKPVDADQLVERAGALIGFPE | soluble
4 | GSHMSPSDLHLPVPGHPIAAIATPVGVGALAIVRISGAGVLDLADRVFRKVHGSGKLAEAAGYTAHFGRLYDGEEMVDEVIALVFRAPRSFTAEQMVEFTCHGGPVVVGRVLRLMLDNGCRLAEPGEFTRRAFLNGRIDLLQAEAIGEMIHARTESAYRTAVSQMKGDLSVRLGGLREQLIRSCALIELELDFSEEDVEFQSRDELTMQIETLRSEVNRLIDSYQHGRIVSEGVSTVIAGKPNAGKSTLLNTLLGQERAIVSHMPGTTRDYIEECFIHDKTMFRLTDTAGLREAGEEIEHEGIRRSRMKMAEADLILYLLDLGTERLDDELTEIRELKAAHPAAKFLTVANKLDRAANADALIRAIADGTGTEVIGISALNGDGIDTLKQHMGDLVKNLDKLHEASVLVTSLRHYEALRNASDALQNALELIAHESETELIAFELRAALDYVGQITGKVVNEEVLNTIFDKFCIGK | soluble
5 | GSHMTRTRMENELIVSKNMQNIIIAGNGPSLKNINYKRLPREYDVFRCNQFYFEDKYYLGKKIKAVFFNPGVFLQQYHTAKQLILKNEYEIKNIFCSTFNLPFIESNDFLHQFYNFFPDAKLGYEVIENLKEFYAYIKYNEIYFNKRITSGVYMCAIAIALGYKTIYLCGIDFYEGDVIYPFEAMSTNIKTIFPGIKDFKPSNCHSKEYDIEALKLLKSIYKVNIYALCDDSILANHFPLSININNNFTLENKHNNSINDILLTDNTPGVSFYKNQLKADNKIMLNFY | soluble
6 | GSHVFKSRLQEYAQKYKLPTPVYEIVKEGPSHKSLFQSTVILDGVRYNSLPGFFNRKAAEQSAAEVALRELAK | soluble
7 | GSIGLEAEIETTTDETDDGTNTVSHILNVLKDATPIEDVFSFNYPEGIEGPDIKYKKEHVKYTYGPTFLLQFKDKLNVKADAEWVQSTASKIVIPPGMGR | soluble
8 | GSKQVITEQIANDLVKEVVNSSVISIVKREFSEANYRKDFIDTMTRELYDAFLHERLYLIYMDSRAELKRNSTLKKKFFEKWQAS | soluble
9 | GSLRPLSEVNQHSQLMAQLVEVIEDSFQMKVNKESVNYLRLIRHIRFTIERIKKEEPTKEPEKLMLLLKNEYPLCYNTAWKLIKILQQTLKKPVHEAEAVYLTLHLIPINQ | soluble
10 | GSMAEGSAVSDPQHAARLLRALSSFREESRFCDAHLVLDGEEIPVQKNILAAASPYIRTKLNYNPPKDDGSTYKIELEGISVMVMREILDYIFSGQIRLNEDTIQDVVQAADLLLLTDLKTLCCEFLEGCIAAENCIGIRDFALHYCLHHVHYLATEYLETHFRDVSSTEEFLELSPQKLKEVISLEKLNVGNERYVFEAVIRWIAHDTEIRKVHMKDVMSALWVSGLDSSYLREQMLNEPLVREIVKECSNIPLS | soluble
11 | GSMASAAVANYEEEIVRPVADFSPSLWGDQFLSFSIKNQVAEKYAKEIEALKEQTRNMLLATGMKLADTLNLIDTIERLGISYHFEKEIDDILDQIYNQNSNCNDLCTSALQFRLLRQHGFNISPEIFSKFQDENGKFKESLASDVLGLLNLYEASHVRTHADDILEDALAFSTIHLESAAPHLKSPLREQVTHALEQCLHKGVPRVETRFFISSIYDKEQSKNNVLLRFAKLDFNLLQMLHKQELAQVSRWWKDLDFVTTLPYARDRVVECYFWTLGVYFEPQYSQARVMLVKTISMISIVDDTFDAYGTVKELEAYTDAIQRWDINEIDRLPDYMKISYKAILDLYKDYEKELSSAGRSHIVCHAIERMKEIVRNYNVESTWFIEGYTPPVSEYLSNALATTTYYLLATTSYLGMKSATEQDFEWLSKNPKILEASVIICRVIDDTATYEVEKSRGQIATGIECCMRDYGISTKEAMAKFQNMAETAWKDINEGLLRPTPVSTEFLTPILNLARIIEVTYIHNLDGYTHPEKVLKPHIINLLVDSIKI | soluble
12 | GSMEQFELFSIDKFKCNSEAKYYLNIIEGEWHPQDLNDSPLKFILSTSDDSDYICKYINTEHKQLTLYNKNNSSIVIEIFIPNDNKILLTIMNTEALGTSPRMTFIKHK | soluble
13 | GSMSAKDERAREILRGFKLNWMNLRDAETGKILWQGTEDLSVPGVEHEARVPKKILKCKAVSRELNFSSTEQMEKFRLEQKVYFKGQCLEEWFFEFGFVIPNSTNTWQSLIEAAPESQMMPASVLTGNVIIETKFFDDDLLVSTSRVRLFYV | soluble
14 | GSNRAIRTEKIICRDVARGYENVPIPCVNGVDGEPCPEDYKYISENCETSTMNIDRNITHLQHCTCVDDCSSSNCLCGQLSIRCWYDKDGRLLQEFNKIEPPLIFECNQACSCWRNCKNRVVQSGIKVRLQLYRTAKMGWGVRALQTIPQGTFICEYVGELISDAEADVREDDSYLFDLDNKDGEVYCIDARYYGNISRFINHLCDPNIIPVRVFMLHQDLRFPRIAFFSSRDIRTGEELGFDYGDRFWDIKSKYFTCQCGSEKCKHSAEAIALEQSRLARLD | soluble
15 | GSPASGTSLSAAIHRTQLWFHGRISREESQRLIGQQGLVDGLFLVRESQRNPQGFVLSLCHLQKVKHYLILPSEEEGRLYFSMDDGQTRFTDLLQLVEFHQLNRGILPCLLRHCCTRVAL | soluble
16 | GSPEFMALTQSLKLSNGVMMPVLGFGMWKLQDGNEAETATMWAIKSGYRHIDTAAIYKNEESAGRAIASCGVPREELFVTTKLWNSDQGYESTLSAFEKSIKKLGLEYVDLYLIHWPGKDKFIDTWKAFEKLYADKKVRAIGVSNFHEHHIEELLKHCKVAPMVNQIELHPLLNQKALCEYCKSKNIAVTAWSPLGQGHLVEDARLKAIGGKYGKTAAQVMLRWEIQAGVITIPKSGNEARIKENGNIFDFELTAEDIQVIDGMNAGHRYGPDPEVFMNDF | soluble
17 | GSPEFMIGEEVPSDQYYWAPLAQHERGSLASLDSLRKGGPPPPNWRQPELPEVIAMLGFRLDAVKSNAAAYLQHLCYRNDKVKTDVRKLKGIPVLVGLLDHPKKEVHLGACGALKNISFGRDQDNKIAIKNCDGVPALVRLLRKARDMDLTEVITGTLWNLSSHDSIKMEIVDHALHALTDEVIIPHSGWEREPNEDCKPRHIEWESVLTNTAGCLRNVSSERSEARRKLRECDGLVDALIFIVQAEIGQKDSDSKLVENCVCLLRNLSYQVHREIPQAERYQEAAPNVANNTGTSPARGYELLFQPEVVRIYISLLKESKTPAILEASAGAIQNLCAGRWTYGRYIRSALRQEKALSAIADLLTNEHERVVKAASGALRNLAVDARNKELIGKHAIPNLVKNLPGGQQNSSWNFSEDTVISILNTINEVIAENLEAAKKLRETQGIEKLVLINKSGNRSEKEVRAAALVLQTIWGYKELRKPLEKEGWKKSDFQVNLNNASRSQSSHSYDDSTLPLIDRNQKSDKKPDREEIQMSNMGSNTKSLDNNYSTPNERGDHNRTLDRSGDLGDMEPLKGTTPLMQKI | soluble
18 | GSPIPHHDEKTWNVGSSNRNKAENLLRGKRDGTFLVRESSKQGCYACSVVVDGEVKHCVINKTATGYGFAEPYNLYSSLKELVLHYQHTSLVQHNDSLNVTLAYPVYAQQRR | soluble
19 | GSPLPAAGFKKQQRKFQYGNYCKYYGYRNPSCEDGRLRVLKPEWFRGRDVLDLGCNVGHLTLSIACKWGPSRMVGLDIDSRLIHSARQNIRHYLSEELRLPPQTLEGDPGAEGEEGTTTVRKRSCFPASLTASRGPIAAPQVPLDGADTSVFPNNVVFVTGNYVLDRDDLVEAQTPEYDVVLCLSLTKWVHLNWGDEGLKRMFRRIYRHLRPGGILVLEPQPWSSYGKRKTLTETIYKNYYRIQLKPEQFSSYLTSPDVGFSSYELVATPHNTSKGFQRPVYLFHKARSPSH | soluble
20 | GSRRASVGSMSKKPPNRPGITFEIGARLEALDYLQKWYPSRIEKIDYEEGKMLVHFERWSHRYDEWIYWDSNRLRPLERPALR | soluble
21 | GSSGSSGMQAGKPILYSYFRSSCSWRVRIALALKGIDYEIVPINLIKDGGQQFTEEFQTLNPMKQVPALKIDGITIVQSLAIMEYLEETRPIPRLLPQDPQKRAIVRMISDLIASGIQPLQNLSVLKQVGQENQMQWAQKVITSGFNALEKILQSTAGKYCVGDEVSMADVCLVPQVANAERFKVDLSPYPTISHINKELLALEVFQVSHPRRQPDTPAELRT | soluble
22 | GSSVSSVPTKLEVVAATPTSLLISWDAPMSSSSVYYYRITYGETGGNSPVQEFTVPYSSSTATISGLSPGVDYTITVYAWGEDSAGYMFMYSPISINYRTC | soluble
23 | GSYAEGQKKRRNTLHEFKKSAKTTLTKEDPLLKIKTKKVNSADECANRCIRNRGFTFTCKAFVFDKSRKRCYWYPFNSMSSGVKKGFGHEFDLYENKDYIRNCIIGKGGSYKGTVSITKSGIKCQPWNSMIPHEHSFLPSSYRGKDLQENYCRNPRGEEGGPWCFTSNPEVRYEVCDIPQCSEV | soluble
24 | GSYCPRNLHLLPTTDTYLSKVSDDPDNLEDVDDEELNAHLLNEEASKLKERIWIGLNADFLLEQESKRLKQE | soluble
25 | GTSPIQTPINTMSQQYTLPPLPYPYDALQPYISQQIMELHHKKHHQTYVNGLNAALEAQKKAAEATDVPKLVSVQQAIKFNGGGHINHSLFWKNLAPEKSGGGKIDQAPVLKAAIEQRWGSFDKFKDAFNTTLLGIQGSGWGWLVTDGPKGKLDITTTHDQDPVTGAAPVFGVDMWEHAYYLQYLNDKASYAKGIWNVINWAEAENRYIAGDKGGHPFMKL | soluble
26 | GTVQEIMIPAGKAGLVIGKGGETIKQLQERAGVKMILIQDGSQNTNVDKPLRIIGDPYKVQQACEMVMDILRERDQGGFGDRNEYGSRIGGGIDVPVPRHSVGVVIGRSGEMIKKIQNDAGVRIQFKQDDGTGPEKIAHIMGPPDRCEHAARIINDLLQSLRSG | soluble
27 | GVKCEPFEHLVIDTPQDFSGAIIERLGKRKAEMKAMNPMSDGYTRLEFEIPARGLIGYRSEFLTDTKGEGVMNHSFLEFRPFSGSVESRKNGALISMENGEATAFSLFNIQERGTLFINPQTKVYVGMV | not soluble
28 | GYDCLGYYQNQEDIMNSPKRQSSVNLGAGDLKYNDFNGDGIIDGSDQHRIGKNSMPRGQYGFSADLNYKGWFMNMLWQGATPADLYMGGMIQGSQSGSGYPPVIYDFQTDVWTPNNTGARYPRLRSTASYNGSNNYGSSDFWLINTGYLRLKTLSIGYDFKHKLLKRVAWMNKCNVSLNGYNLLTFSKANKFDIDPEIGDGNLYTYPVSRVYSISVNVGF | not soluble
